Reference: US20210085785A1 (TRUEBINDING, published 2021)
Substitutions are numbered along the chain they refer to. Blank lines part the entries; values can stand above or below the binder they belong to.

Assays:
[1] = molecular target: T1, Purified human LRIG1 extracellular domain fused to a HIS tag (R&D Systems) (human) (UniProt Q96JA1); test: biosensor binning; saturating mab5 20 ug/mL, competitor mab2 5 ug/mL
T1 sequence: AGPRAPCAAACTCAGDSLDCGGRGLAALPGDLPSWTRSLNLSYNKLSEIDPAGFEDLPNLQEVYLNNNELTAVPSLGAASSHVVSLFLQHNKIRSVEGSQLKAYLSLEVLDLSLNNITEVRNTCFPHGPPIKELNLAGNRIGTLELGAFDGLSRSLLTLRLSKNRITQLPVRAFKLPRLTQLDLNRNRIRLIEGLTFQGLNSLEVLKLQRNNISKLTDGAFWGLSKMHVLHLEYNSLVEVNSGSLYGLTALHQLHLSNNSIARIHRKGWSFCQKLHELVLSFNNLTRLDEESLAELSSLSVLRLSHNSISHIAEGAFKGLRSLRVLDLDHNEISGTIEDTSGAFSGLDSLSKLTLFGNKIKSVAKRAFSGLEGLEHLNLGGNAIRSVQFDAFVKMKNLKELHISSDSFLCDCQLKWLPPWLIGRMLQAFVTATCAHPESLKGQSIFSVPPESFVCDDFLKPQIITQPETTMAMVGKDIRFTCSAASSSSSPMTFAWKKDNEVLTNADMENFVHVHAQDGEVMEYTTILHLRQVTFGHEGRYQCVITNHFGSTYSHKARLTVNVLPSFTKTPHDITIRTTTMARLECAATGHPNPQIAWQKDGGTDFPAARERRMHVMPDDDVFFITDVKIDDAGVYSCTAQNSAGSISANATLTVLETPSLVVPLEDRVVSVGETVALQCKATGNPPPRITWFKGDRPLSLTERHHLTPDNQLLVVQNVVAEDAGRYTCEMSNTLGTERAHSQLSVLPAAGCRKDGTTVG

[2] = molecular target: T1, Purified human LRIG1 extracellular domain fused to a HIS tag (R&D Systems) (human); test: biosensor binning; saturating mab5 20 ug/mL, competitor mab4 5 ug/mL
[3] = molecular target: T1, Purified human LRIG1 extracellular domain fused to a HIS tag (R&D Systems) (human); test: blocking ELISA: LRIG1 ECD-His coated, antibody 3.3 ug/ml, oligomerized VISTA 50 nM, avidin-HRP
[4] = molecular target: T1, Purified human LRIG1 extracellular domain fused to a HIS tag (R&D Systems) (human); test: biosensor binning; saturating mab5 20 ug/mL, competitor mab6 5 ug/mL
[5] = molecular target: T1, Purified human LRIG1 extracellular domain fused to a HIS tag (R&D Systems) (human); test: biosensor binning; saturating mab5 20 ug/mL, competitor mab5 5 ug/mL
[6] = molecular target: T2, Purified human LRIG1 extracellular domain fused to a HIS tag (R&D Systems) (human, UniProt Q96JA1 35-794); test: blocking ELISA: LRIG1 ECD-His coated, antibody 3.3 ug/ml, oligomerized VISTA 50 nM, avidin-HRP
T2 construct: also called human LRIG1-His; hLRIG1-His; not shown: HIS tag
T2 sequence: T1 sequence
Description: To identify LRIG1-targeted antibodies with the ability to block the interaction of LRIG1 and VISTA, purified LRIG1 and VISTA proteins were incubated in the presence of various LRIG1-targeted or control antibodies, or without antibody, and protein interaction was evaluated by ELISA. Purified human LRIG1 extracellular domain fused to a HIS tag (R&D Systems) was diluted in phosphate buffered saline (PBS) (Corning) to a concentration of 3 μg/ml and 100 ul was added to each well of a 96-well ELISA plate (Thermo Fisher, 44-2404-21). After incubating the plate at 4° C. overnight, the plate was washed three times with 300 μl of PBS with 0.05% TWEEN (VWR) (PBST) per well. The plate was then blocked for an hour with 200 μl of 2% bovine serum albumin (BSA) (Sigma) in PBST per well at room temperature with gentle rocking. Thereafter, the 2% BSA in PBST was removed and 50 ul of antibody at 3.3 ug/ml in 2% BSA in PBST was added to the wells. The plate was incubated for 10 minutes at room temperature with gentle rocking. Afterwards, 50 nM of oligomerized VISTA in 100 ul PBS buffer was added per well. […] The plate was read using a plate reader (Molecular Devices) at absorbance of 450 nm. Percent blockade of LRIG1-VISTA interaction was calculated as the fraction of signal obtained in each experimental samples of the no antibody sample less background signal.

competition matrix entry (not explained) [1]: 0
competition matrix entry (not explained) [2]: 0
percent of LRIG1-VISTA binding relative to an unblocked sample [3]: 60%
competition matrix entry (not explained) [4]: 0
competition matrix entry (not explained) [5]: 0
B1: mab5 (antibody, V domains shown)
VH: QVQLVQSGAEVKKPGASVKVSCKASGYTFTSYYLHWVRQAPGQRLEWMGWIYPGNVNTKYNQKFQGRVTITADKSASTAYMELSSLRSEDTAVYFCAREELGGFAYWGQGTLVTVSS
VL: DIQMTQSPSSLSASVGNRVTITCRASQDISNYLSWYQQKPGKVPKLLIYYTSILHSGVPSRFSGSGSGTDYSLTISSLQPEDVATYFCQQGNTLPRTFGQGTKVEIK

percent of LRIG1-VISTA binding relative to an unblocked sample [6]: 44%
B2: mab4 (IMT300) (antibody, V domains shown)
VH: B1 VH
VL: B1 VL with L11V, V15I, N17D, V43A, S72T, V83F, Q100G
notes: also called hLRIG1 mAb IMT300; Immutics PP14384

percent of LRIG1-VISTA binding relative to an unblocked sample [6]: 43%
B3: mab6 (antibody, V domains shown)
VH: B1 VH with M48I, Q62E, I70L
VL: B1 VL with L11V, V15I, N17D, V43A, S72T, V83F, Q100G
notes: also called Immutics PP14387
